For experiment [1], the target named is T1, cynomolgus DKK1 (cynomolgus monkey (Macaca fascicularis), UniProt A0A7N9IE82 32-266).
T1 construct: also called cyno DKK1; monkey DKK1 (Novartis)
T1 sequence: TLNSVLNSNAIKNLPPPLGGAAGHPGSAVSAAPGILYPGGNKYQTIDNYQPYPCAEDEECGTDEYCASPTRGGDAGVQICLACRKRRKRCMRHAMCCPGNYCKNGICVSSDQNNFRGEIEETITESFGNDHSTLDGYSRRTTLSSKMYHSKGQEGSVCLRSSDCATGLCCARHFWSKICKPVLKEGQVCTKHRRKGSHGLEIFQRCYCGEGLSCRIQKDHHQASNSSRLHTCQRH
In words: solution equilibrium titration (SET), ECL (BioVeris), IgG. The source says: (§1) Electrochemiluminescence (ECL) based affinity determination in solution and data evaluation are basically performed as described by [Haenel et al., 2005], the binding fit model is applied as modified according to [Piehler et al., 1997]). […] Biotinylated human. […] Subsequently, the concentration of unbound. IgG is quantified via ECL detection using the M-384 SERIES® analyzer (BioVeris, Europe).

For experiment [2], the target named is T2, mouse DKK1 (R&D Systems) (mouse, UniProt O54908 32-272).
T2 construct: Bought protein
T2 sequence (looked up): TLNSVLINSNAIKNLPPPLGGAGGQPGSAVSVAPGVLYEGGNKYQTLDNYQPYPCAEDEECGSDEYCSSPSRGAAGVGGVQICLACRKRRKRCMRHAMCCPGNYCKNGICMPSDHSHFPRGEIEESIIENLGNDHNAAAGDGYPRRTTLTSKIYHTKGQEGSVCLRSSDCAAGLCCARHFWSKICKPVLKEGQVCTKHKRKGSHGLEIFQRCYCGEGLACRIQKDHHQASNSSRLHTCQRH
The description is as above.
Text: as §1

Experiment [3] has as its target T3, recombinant human DKK1 (human, UniProt O94907 32-266).
T3 construct: also called Dickkopf-1; rhDKK1
T3 sequence: T1 sequence with N114H, S150T, T166S
Described as above.
Text: as §1

A further experiment has as its target T4, rat DKK1 (Novartis) (rat, UniProt A6I0Z0 32-270).
T4 sequence: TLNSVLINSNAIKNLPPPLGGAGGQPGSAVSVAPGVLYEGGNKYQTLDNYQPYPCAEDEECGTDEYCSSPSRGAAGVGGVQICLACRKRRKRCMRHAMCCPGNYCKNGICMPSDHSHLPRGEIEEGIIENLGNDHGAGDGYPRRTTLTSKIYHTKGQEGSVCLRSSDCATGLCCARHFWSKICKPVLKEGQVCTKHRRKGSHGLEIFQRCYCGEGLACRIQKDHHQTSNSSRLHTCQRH
The description is as above.
Text: as §1

For experiment [4], the target named is T3, recombinant human DKK1. Nature of the experiment: cell-based or functional assay.
Experiment [5] addresses T1, cynomolgus DKK1. In words: solution equilibrium titration (SET), ECL (BioVeris), Fab. As for the experimental part: (§2) Electrochemiluminescence (ECL) based affinity determination in solution and data evaluation are basically performed as described by Haenel et al., 2005. […] Subsequently, the concentration of unbound Fab is quantified by ECL detection using the M-SERIES® 384 analyzer (BioVeris Europe).
(§3) Affinities are calculated according to Haenel et al., 2005 Anal Biochem 339.1:182-184.

The target of experiment [6] is T2, mouse DKK1 (R&D Systems). The description is as above. As for the experimental part:
as §2, §3

Experiment [7] has as its target T3, recombinant human DKK1. Described as above. As for the experimental part: as §2, §3
Another experiment concerns the target T5, biotinylated human DKK1 (human, UniProt O94907 32-266, biotinylated (sites not given)).
T5 construct: also called biotinylated DKK1; human recombinant, biotinylated DKK1
T5 sequence: T1 sequence with N114H, S150T, T166S
Nature of the experiment: ELISA, biotinylated DKK1 on Neutravidin plates, Fab 1 ug/ml, anti-FLAG-AP detection; single measurement. As for the experimental part:
Binding specificity of the matured Fabs in the presence of 50% human serum (HS) is determined. […] After coating of the antigen, wells are blocked with TBS/0.05% Tween (TBS-T) supplemented with 1% BSA for 1 h at room temperature. Purified Fabs described above are diluted either in TBS/4% BSA or TBS/50% HS at a final concentration of 1 μg/ml, added to the coated and blocked wells and the plates are incubated for 1 h at room temperature. For detection, an anti-FLAG alkaline phosphatase (AP)-conjugated antibody (1:5000 dilution in TBST) and the fluorogenic substrate AttoPhos (Roche) are used. After each incubation, the wells of the microtiter plates are washed with TBST five times, except after the final incubation step with the labeled secondary antibody when wells are washed three times.
The fluorescence is measured in a TECAN Spectrafluor plate reader.
A general note: In an ELISA, binding on a coated surface is turned into a signal by an enzyme label.

The target of experiment [8] is T6, DKK1-APP (human, UniProt O94907 32-266).
T6 sequence: T1 sequence with N114H, S150T, T166S
In words: cell-based or functional assay.

Experiment [9] concerns the target T6, DKK1-APP. In words: cell-based or functional assay. This is another data set of the same source.
The target of experiment [10] is T2, mouse DKK1 (R&D Systems). Nature of the experiment: Cross-reactivity mouse (grade in Table 4).
The target in experiment [11] is T1, cynomolgus DKK1. In words: SPR (Biacore), DKK1 immobilised on CM5 chip, Fab as analyte. As for the experimental part:
(§4) Using these clones, kinetic SPR analysis is performed on a. […] The Fab preparations are applied in concentration series of 16-500 nM at a flow rate of 20 μl/min. Association phase is set to 60 s and dissociation phase to 120 s.
Background: Surface plasmon resonance follows binding to a sensor surface in real time, without labels.

In experiment [12] the target is T3, recombinant human DKK1. The experiment is described as above. As for the experimental part: as §4
The target of experiment [13] is T1, cynomolgus DKK1. The experiment is described as above. As for the experimental part: as §4
This is another data set of the same source.

For experiment [14], the target named is T3, recombinant human DKK1. The experiment is described as above. As for the experimental part:
as §4
This is another data set of the same source.

For experiment [15], the target named is T1, cynomolgus DKK1. The description is as above. As for the experimental part: as §4
The source holds these as a separate data set.

Experiment [16] addresses T3, recombinant human DKK1. The description is as above. As for the experimental part:
as §4
The source holds these as a separate data set.

Experiment [17] has as its target T6, DKK1-APP. Nature of the experiment: cell-based or functional assay. This is another data set of the same source.

The values that follow come from patent publication US20120023600A1 (Novartis, published 2012).

Broadly, the Kd is a measure of binding affinity in units of concentration. In general, EC50 refers to the concentration giving half of the maximal effect.

Positions count from the first letter of the chain named.

B1: MOR4910 IgG (antibody, V domains shown)
VH: QVQLVESGGGLVQPGGSLRLSCAASGFTFSSYWMSWVRQAPGKGLEWVSGISYSGSNTHYADSVKGRFTISRDNSKNTLYLQMNSLRAEDTAVYYCARMGIDLDYWGQGTLVTVSS
VL: DIALTQPASVSGSPGQSITISCTGTSSDVGGFNYVSWYQQHPGKAPKLMIHDGSNRPSGVSNRFSGSKSGNTASLTISGLQAEDEADYYCQSWDVSPITAVFGGGTKLTVLG
notes: also called MOR04910 IgG
As for B1, the Kd in the experiment with cynomolgus DKK1 [1] was 0.007 nM; with mouse DKK1 (R&D Systems) [2], 0.01 nM; with recombinant human DKK1 [3], 0.017 nM; in the experiment with rat DKK1 (Novartis), 0.016 nM.

B2: MOR04954 (Fab, V domains shown)
VH: QVQLVESGGGLVQPGGSLRLSCAASGFTFSSYWMSWVRQAPGKGLEWVSVIEHKDKGGTTYYAASVKGRFTISRDNSKNTLYLQMNSLRAEDTAVYYCARHGIDFDHWGQGTLVTVSS
VL: DIALTQPASVSGSPGQSITISCTGTSSDLGGYNYVSWYQQHPGKAPKLMIYDVNNRPSGVSNRFSGSKSGNTASLTISGLQAEDEADYYCQSYASGNTKVVFGGGTKLTVLG
With B2, the “TCF/LEF luc assay w/Kremen: EC50” value with recombinant human DKK1 [4] stood at 1.3 nM. Moreover, the Kd with cynomolgus DKK1 [5] stood at 0.112 nM; with mouse DKK1 (R&D Systems) [6], 0.036 nM; with recombinant human DKK1 [7], 0.11 nM. For the same molecule, the “Binding activity w/50% Human serum vs 4% BSA (%)” value with biotinylated human DKK1 is more than 83%. In the experiment with DKK1-APP [8], the “Luciferase reporter assay w/o Kremen; Activity in 15% Human serum (%)” value was determined as 55%.

B3: MOR04455 (Fab, V domains shown)
VH: QVQLVESGGGLVQPGGSLRLSCAASGFTFSSYGMSWVRQAPGKGLEWVSGISGSGSYTYYADSVKGRFTISRDNSKNTLYLQMNSLRAEDTAVYYCARHYMDHWGQGTLVTVSS
VL: DIQMTQSPSSLSASVGDRVTITCRASQDISNYLHWYQQKPGKAPKLLIYGASNLQSGVPSRFSGSGSGTDFTLTISSLQPEDFAVYYCQQYDSIPMTFGQGTKVEIKR
notes: Fab with C-terminal FLAG and 6xHis tags
B3: the response in the experiment with DKK1-APP [9] was half-maximal at 39 nM (EC50). Further, the binding result with mouse DKK1 (R&D Systems) [10] was “binds”. In addition, the equilibrium dissociation constant (Kd) amounted to 1.5 nM with cynomolgus DKK1 [11]; 1.6 nM in the experiment with recombinant human DKK1 [12]; 1.5 nM with cynomolgus DKK1 [13]; 1.6 nM with recombinant human DKK1 [14]; 1.5 nM with cynomolgus DKK1 [15]; 1.6 nM in the experiment with recombinant human DKK1 [16]. The “Luciferase reporter assay; EC50” value in the experiment with DKK1-APP [17] came out at 39 nM.
